{"source": "patent US20150050271A1", "about": "(published 2015)", "key": {"[1]": {"target": "WT (3)", "experiment": "ELISA"}, "[2]": {"target": "WT (2A)", "experiment": "ELISA"}, "[3]": {"target": "WT (2B)", "experiment": "ELISA"}, "[4]": {"target": "WT (1B)", "experiment": "ELISA"}, "[5]": {"target": "WT (1A)", "experiment": "ELISA"}, "[6]": {"target": "T1, MAD1 JCV VLPs (virus-like particles of JCV capsid protein VP1, MAD1 strain) (JC virus (JCV), MAD1, UniProt P03089 1-354)", "T1 sequence (P03089 whole entry)": "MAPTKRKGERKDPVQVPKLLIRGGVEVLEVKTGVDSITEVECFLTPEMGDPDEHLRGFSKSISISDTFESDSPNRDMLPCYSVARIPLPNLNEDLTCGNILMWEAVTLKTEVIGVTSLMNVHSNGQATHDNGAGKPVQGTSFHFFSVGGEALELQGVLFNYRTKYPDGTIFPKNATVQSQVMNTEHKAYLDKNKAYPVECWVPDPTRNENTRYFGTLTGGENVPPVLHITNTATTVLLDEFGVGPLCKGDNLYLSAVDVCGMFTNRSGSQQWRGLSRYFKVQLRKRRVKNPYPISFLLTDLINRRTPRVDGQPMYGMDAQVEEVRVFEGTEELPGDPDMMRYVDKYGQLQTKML", "experiment": "Biacore; Fab"}, "[7]": {"target": "Type 3 wt", "experiment": "Biacore; mAb; printed ≤"}, "[8]": {"target": "T1, MAD1 JCV VLPs (virus-like particles of …)", "experiment": "ELISA"}, "[9]": {"target": "T1, MAD1 JCV VLPs (virus-like particles of …)", "experiment": "Biacore; mAb"}}}
{"binder": "BIIB048 (antibody, V domains shown) VH: QVQLVESGGGVVQPGRSLRLSCAASGFSFDRNYWIAWVRQAPGKGLEWVAVISAGGSGNTYYATWAKGRFTISRDNSKNTLYLQMNSLRAEDTAVYYCARFYSGGGYYAGYFTLWGQGTLVTVSS VL: AIQLTQSPSSLSASVGDRVTITCQASQSIGNNLAWYQQKPGKAPKLLIYLASYLASGVPSRFSGSGSGTDFTLTISSLQPEDFATYYCQSSYYSPNDNAFGQGTKVEIK", "values": [{"measurement": "EC50", "setting": "[1]", "result": "< 0.1", "unit": "nM"}, {"measurement": "EC50", "setting": "[2]", "result": "< 0.1", "unit": "nM"}, {"measurement": "EC50", "setting": "[3]", "result": "< 0.1", "unit": "nM"}, {"measurement": "EC50", "setting": "[4]", "result": "< 0.1", "unit": "nM"}, {"measurement": "EC50", "setting": "[5]", "result": "< 0.1", "unit": "nM"}]}
{"binder": "H0/L0 Fab (antibody, V domains shown) VH: QVQLVESGGGVVQPGRSLRLSCAASGFSFDRNYWIAWVRQAPGKGLEWVAVISAGGSGNTYYATWAKGRFTISRDNSKNTLYLQMNSLRAEDTAVYYCARFYSGGGYYAGYFTLWGQGTLVTVSS VL: AIQLTQSPSSLSASVGDRVTITCQASQSIGNNLAWYQQKPGKAPKLLIYLASYLASGVPSRFSGSGSGTDFTLTISSLQPEDFATYYCQSSYYSPNDNAFGQGTKVEIK", "values": [{"measurement": "Kd", "setting": "[6]", "result": 50, "unit": "nM"}]}
{"binder": "H0/L0 mAb (antibody, V domains shown) VH: QVQLVESGGGVVQPGRSLRLSCAASGFSFDRNYWIAWVRQAPGKGLEWVAVISAGGSGNTYYATWAKGRFTISRDNSKNTLYLQMNSLRAEDTAVYYCARFYSGGGYYAGYFTLWGQGTLVTVSS VL: AIQLTQSPSSLSASVGDRVTITCQASQSIGNNLAWYQQKPGKAPKLLIYLASYLASGVPSRFSGSGSGTDFTLTISSLQPEDFATYYCQSSYYSPNDNAFGQGTKVEIK", "values": [{"measurement": "Kd", "setting": "[7]", "result": "< 0.01", "unit": "nM"}]}
{"binder": "humanized R399 H0L0 (antibody, V domains shown) VH: QVQLVESGGGVVQPGRSLRLSCAASGFSFDRNYWIAWVRQAPGKGLEWVAVISAGGSGNTYYATWAKGRFTISRDNSKNTLYLQMNSLRAEDTAVYYCARFYSGGGYYAGYFTLWGQGTLVTVSS VL: AIQLTQSPSSLSASVGDRVTITCQASQSIGNNLAWYQQKPGKAPKLLIYLASYLASGVPSRFSGSGSGTDFTLTISSLQPEDFATYYCQSSYYSPNDNAFGQGTKVEIK", "values": [{"measurement": "EC50", "setting": "[8]", "result": "< 0.1", "unit": "nM"}]}
{"binder": "antibody 50/31-G (heavy chain H0 V50G, light chain L2-N31A, as told in paragraph 169) (antibody, V domains shown) VH: QVQLVESGGGVVQPGRSLRLSCAASGFSFDRNYWIAWVRQAPGKGLEWVAGISAGGSGNTYYATWAKGRFTISRDNSKNTLYLQMNSLRAEDTAVYYCARFYSGGGYYAGYFTLWGQGTLVTVSS VL: AFQLTQSPSSLSASVGDRVTINCQASQSIGANLAWYQQKPGKAPKLLIYLASYLASGVPSRFSGSGSGTQFTLTVSSLQPEDFATYYCQSSYYSPNDNAFGQGTKVEIK", "values": [{"measurement": "EC50", "setting": "[8]", "result": "< 0.1", "unit": "nM"}]}
{"binder": "5031G (antibody, V domains shown) VH: QVQLVESGGGVVQPGRSLRLSCAASGFSFDRNYWIAWVRQAPGKGLEWVAGISAGGSGNTYYATWAKGRFTISRDNSKNTLYLQMNSLRAEDTAVYYCARFYSGGGYYAGYFTLWGQGTLVTVSS VL: AFQLTQSPSSLSASVGDRVTINCQASQSIGANLAWYQQKPGKAPKLLIYLASYLASGVPSRFSGSGSGTQFTLTVSSLQPEDFATYYCQSSYYSPNDNAFGQGTKVEIK", "values": [{"measurement": "EC50", "setting": "[1]", "result": "< 0.1", "unit": "nM"}, {"measurement": "EC50", "setting": "[2]", "result": "< 0.1", "unit": "nM"}, {"measurement": "EC50", "setting": "[3]", "result": "< 0.1", "unit": "nM"}, {"measurement": "EC50", "setting": "[4]", "result": "< 0.1", "unit": "nM"}, {"measurement": "EC50", "setting": "[5]", "result": "< 0.1", "unit": "nM"}]}
{"binder": "antibody 50/31-A (heavy chain H0 V50A, light chain L2 N31A) (antibody, V domains shown) VH: QVQLVESGGGVVQPGRSLRLSCAASGFSFDRNYWIAWVRQAPGKGLEWVAAISAGGSGNTYYATWAKGRFTISRDNSKNTLYLQMNSLRAEDTAVYYCARFYSGGGYYAGYFTLWGQGTLVTVSS VL: AFQLTQSPSSLSASVGDRVTINCQASQSIGANLAWYQQKPGKAPKLLIYLASYLASGVPSRFSGSGSGTQFTLTVSSLQPEDFATYYCQSSYYSPNDNAFGQGTKVEIK", "values": [{"measurement": "Kd", "setting": "[9]", "result": 0.9, "unit": "nM"}]}
{"binder": "V50A/N31A Fab (antibody, V domains shown) VH: QVQLVESGGGVVQPGRSLRLSCAASGFSFDRNYWIAWVRQAPGKGLEWVAAISAGGSGNTYYATWAKGRFTISRDNSKNTLYLQMNSLRAEDTAVYYCARFYSGGGYYAGYFTLWGQGTLVTVSS VL: AFQLTQSPSSLSASVGDRVTINCQASQSIGANLAWYQQKPGKAPKLLIYLASYLASGVPSRFSGSGSGTQFTLTVSSLQPEDFATYYCQSSYYSPNDNAFGQGTKVEIK", "values": [{"measurement": "Kd", "setting": "[6]", "result": 8.9, "unit": "nM"}]}
